The values below come from publication PMC9496550.

This assay concerns the target full length human kynurenine 3-monooxygenase fused to the C-terminal fragment of CFP (flKMO-CC) (human) (UniProt O15229). Description: split reporter (BiFC, NanoBiT); BiFC in live HEK293T cells 48 h after co-transfection, 37 °C, 5% CO2; CC + VN (KMO with HTT) or VN + VC (HTT with HTT) complementation; ScanR screening station (mean green intensity normalised by co-transfected RFP) or confocal microscopy.
UniProt O15229, sequence (O15229 whole entry, the tested form may be a part): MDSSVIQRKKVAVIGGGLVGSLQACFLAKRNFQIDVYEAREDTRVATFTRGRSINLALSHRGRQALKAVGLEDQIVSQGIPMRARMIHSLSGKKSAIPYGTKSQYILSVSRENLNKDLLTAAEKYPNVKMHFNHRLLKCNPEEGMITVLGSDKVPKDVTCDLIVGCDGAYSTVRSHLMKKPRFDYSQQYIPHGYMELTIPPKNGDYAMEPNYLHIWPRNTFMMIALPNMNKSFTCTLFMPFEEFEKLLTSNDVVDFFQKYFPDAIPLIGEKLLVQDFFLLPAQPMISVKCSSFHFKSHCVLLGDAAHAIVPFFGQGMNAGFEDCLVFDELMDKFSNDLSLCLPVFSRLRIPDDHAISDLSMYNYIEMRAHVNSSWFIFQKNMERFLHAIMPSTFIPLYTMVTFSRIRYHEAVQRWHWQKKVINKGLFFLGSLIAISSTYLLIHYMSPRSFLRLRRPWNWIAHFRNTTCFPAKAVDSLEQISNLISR

“HTT exon 1 fragment with 97 glutamines fused to the N-terminal half of Venus (HTT97Q-VN) (domain or fragment)”: the reduction of the BiFC signal against flKMO-19Q turned out to be 50%.
